From the supplement of paper PMC6755084

B1: F1*; the commonest letter at each place (parent)
chain: GAGACCGCAACTGAAAAGTTGTTATCACTTGTCGTAAGACACTTTGGATGGGTTGAAGTTCTGCACGTAGAAGCAAAAGGC

Variants of: B1
Test: fraction ligated after 30 min (ligated reads / total reads); higher = more ligase activity
Details: with F1*sub RNA substrate (template-directed ligation), 42 °C
Method in brief: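 The ligase ribozyme variants were produced by PCR amplification of oligo-pool templates, T7 transcription and purification on gel. Their ligated and unligated forms were gel-separated, then reverse transcribed with barcoded primers before MiSeq sequencing. Core bases were filtered at a quality of ≥20, and fraction ligated per variant was ligated reads over total reads.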

| Variant | fraction ligated |
| --- | --- |
| GAGACCGCAACTGAAAAGTTGTTATCACTTGTTGTAAGACACTTTGGGTGGGTTGAAGTTCTGCACGTAGAAGCAAAAGGC | 0.814 |
| GAGACCGCAACTGAAAAGTTGTTATCACTTGTTGTAAGACACTTTGGTTGGGTTGAAGTTCTGCACGTAGAAGCAAAAGGC | 0.452 |
| GAGACCGCAACTGAAAAGTTGTTATCACTTGTTGTAAGACACTTTGGATGGGTTGCAGTTCTGCACGTAGAAGCAAAAGGC | 0.795 |
| GAGACCGCAACTGAAAAGTTGTTATCACTTGTTGTAAGACACTTTGGATGGGTTGGAGTTCTGCACGTAGAAGCAAAAGGC | 0.797 |
| GAGACCGCAACTGAAAAGTTGTTATCACTTGTTGTAAGACACTTTGGATGGGTTGTAGTTCTGCACGTAGAAGCAAAAGGC | 0.847 |
| GAGACCGCAACTGAAAAGTTGTTATCACTTGTTGTAAGACACTTTGGATGGGTTGACGTTCTGCACGTAGAAGCAAAAGGC | 0.841 |
| GAGACCGCAACTGAAAAGTTGTTATCACTTGTTGTAAGACACTTTGGATGGGTTGAGGTTCTGCACGTAGAAGCAAAAGGC | 0.861 |
| GAGACCGCAACTGAAAAGTTGTTATCACTTGTTGTAAGACACTTTGGATGGGTTGATGTTCTGCACGTAGAAGCAAAAGGC | 0.842 |
| GAGACCGCAACTGAAAAGTTGTTATCACTTGTTGTAAGAAACTTTGGATGGGTTGAAGTTCTGCACGTAGAAGCAAAAGGC | 0.875 |
| GAGACCGCAACTGAAAAGTTGTTATCACTTGTTGTAAGAGACTTTGGATGGGTTGAAGTTCTGCACGTAGAAGCAAAAGGC | 0.877 |
| GAGACCGCAACTGAAAAGTTGTTATCACTTGTTGTAAGATACTTTGGATGGGTTGAAGTTCTGCACGTAGAAGCAAAAGGC | 0.859 |
| GAGACCGCAACTGAAAAGTTGTTATCACTTGTTGTAAGACAATTTGGATGGGTTGAAGTTCTGCACGTAGAAGCAAAAGGC | 0.842 |
| GAGACCGCAACTGAAAAGTTGTTATCACTTGTTGTAAGACAGTTTGGATGGGTTGAAGTTCTGCACGTAGAAGCAAAAGGC | 0.857 |
| GAGACCGCAACTGAAAAGTTGTTATCACTTGTTGTAAGACATTTTGGATGGGTTGAAGTTCTGCACGTAGAAGCAAAAGGC | 0.86 |
| GAGACCGCAACTGAAAAGTTGTTATCACTTGTTATAAGACACTTTGGATGGGTTGAAGTTCTGCACGTAGAAGCAAAAGGC | 0.855 |
| GAGACCGCAACTGAAAAGTTGTTATCACTTGTTCTAAGACACTTTGGATGGGTTGAAGTTCTGCACGTAGAAGCAAAAGGC | 0.831 |
| GAGACCGCAACTGAAAAGTTGTTATCACTTGTTTTAAGACACTTTGGATGGGTTGAAGTTCTGCACGTAGAAGCAAAAGGC | 0.853 |
| GAGACCGCAACTGAAAAGTTGTTATCACTTGTTGTAAAACACTTTGGATGGGTTGAAGTTCTGCACGTAGAAGCAAAAGGC | 0.857 |
| GAGACCGCAACTGAAAAGTTGTTATCACTTGTTGTAACACACTTTGGATGGGTTGAAGTTCTGCACGTAGAAGCAAAAGGC | 0.835 |
| GAGACCGCAACTGAAAAGTTGTTATCACTTGTTGTAATACACTTTGGATGGGTTGAAGTTCTGCACGTAGAAGCAAAAGGC | 0.847 |
| GAGACCGCAACTGAAAAGTTGTTATCACTTGTTGTAAGACACTTTAGATGGGTTGAAGTTCTGCACGTAGAAGCAAAAGGC | 0.831 |
| GAGACCGCAACTGAAAAGTTGTTATCACTTGTTGTAAGACACTTTCGATGGGTTGAAGTTCTGCACGTAGAAGCAAAAGGC | 0.807 |
| GAGACCGCAACTGAAAAGTTGTTATCACTTGTTGTAAGACACTTTTGATGGGTTGAAGTTCTGCACGTAGAAGCAAAAGGC | 0.791 |

| Variant | fraction ligated |
| --- | --- |
| GAGACCGCAACTGAAAAGTTGTTATCACTTGTTGTAAGACACTTTGAATGGGTTGAAGTTCTGCACGTAGAAGCAAAAGGC | 0.836 |
| GAGACCGCAACTGAAAAGTTGTTATCACTTGTTGTAAGACACTTTGCATGGGTTGAAGTTCTGCACGTAGAAGCAAAAGGC | 0.165 |
| GAGACCGCAACTGAAAAGTTGTTATCACTTGTTGTAAGACACTTTGTATGGGTTGAAGTTCTGCACGTAGAAGCAAAAGGC | 0.32 |
| GAGACCGCAACTGAAAAGTTGTTATCACTTGTTGTAAGACACTTTGGATAGGTTGAAGTTCTGCACGTAGAAGCAAAAGGC | 0.603 |
| GAGACCGCAACTGAAAAGTTGTTATCACTTGTTGTAAGACACTTTGGATCGGTTGAAGTTCTGCACGTAGAAGCAAAAGGC | 0.324 |
| GAGACCGCAACTGAAAAGTTGTTATCACTTGTTGTAAGACACTTTGGATTGGTTGAAGTTCTGCACGTAGAAGCAAAAGGC | 0.804 |
| GAGACCGCAACTGAAAAGTTGTTATCACTTGTTGTAAGACACTTTGGATGGGTTAAAGTTCTGCACGTAGAAGCAAAAGGC | 0.859 |
| GAGACCGCAACTGAAAAGTTGTTATCACTTGTTGTAAGACACTTTGGATGGGTTCAAGTTCTGCACGTAGAAGCAAAAGGC | 0.82 |
| GAGACCGCAACTGAAAAGTTGTTATCACTTGTTGTAAGACACTTTGGATGGGTTTAAGTTCTGCACGTAGAAGCAAAAGGC | 0.839 |
| GAGACCGCAACTGAAAAGTTGTTATCACTTGTTGAAAGACACTTTGGATGGGTTGAAGTTCTGCACGTAGAAGCAAAAGGC | 0.879 |
| GAGACCGCAACTGAAAAGTTGTTATCACTTGTTGCAAGACACTTTGGATGGGTTGAAGTTCTGCACGTAGAAGCAAAAGGC | 0.869 |
| GAGACCGCAACTGAAAAGTTGTTATCACTTGTTGGAAGACACTTTGGATGGGTTGAAGTTCTGCACGTAGAAGCAAAAGGC | 0.854 |
| GAGACCGCAACTGAAAAGTTGTTATCACTTGTTGTAAGACACATTGGATGGGTTGAAGTTCTGCACGTAGAAGCAAAAGGC | 0.831 |
| GAGACCGCAACTGAAAAGTTGTTATCACTTGTTGTAAGACACCTTGGATGGGTTGAAGTTCTGCACGTAGAAGCAAAAGGC | 0.822 |
| GAGACCGCAACTGAAAAGTTGTTATCACTTGTTGTAAGACACGTTGGATGGGTTGAAGTTCTGCACGTAGAAGCAAAAGGC | 0.78 |
| GAGACCGCAACTGAAAAGTTGTTATCACTTGTTGTAAGACACTATGGATGGGTTGAAGTTCTGCACGTAGAAGCAAAAGGC | 0.844 |
| GAGACCGCAACTGAAAAGTTGTTATCACTTGTTGTAAGACACTCTGGATGGGTTGAAGTTCTGCACGTAGAAGCAAAAGGC | 0.855 |
| GAGACCGCAACTGAAAAGTTGTTATCACTTGTTGTAAGACACTGTGGATGGGTTGAAGTTCTGCACGTAGAAGCAAAAGGC | 0.815 |
| GAGACCGCAACTGAAAAGTTGTTATCACTTGTTGTAAGACACTTAGGATGGGTTGAAGTTCTGCACGTAGAAGCAAAAGGC | 0.75 |
| GAGACCGCAACTGAAAAGTTGTTATCACTTGTTGTAAGACACTTCGGATGGGTTGAAGTTCTGCACGTAGAAGCAAAAGGC | 0.815 |
| GAGACCGCAACTGAAAAGTTGTTATCACTTGTTGTAAGACACTTGGGATGGGTTGAAGTTCTGCACGTAGAAGCAAAAGGC | 0.103 |
| GAGACCGCAACTGAAAAGTTGTTATCACTTGTTGTAAGACACTTTGGAAGGGTTGAAGTTCTGCACGTAGAAGCAAAAGGC | 0.787 |
| GAGACCGCAACTGAAAAGTTGTTATCACTTGTTGTAAGACACTTTGGACGGGTTGAAGTTCTGCACGTAGAAGCAAAAGGC | 0.697 |

| Variant | fraction ligated |
| --- | --- |
| GAGACCGCAACTGAAAAGTTGTTATCACTTGTTGTAAGACACTTTGGAGGGGTTGAAGTTCTGCACGTAGAAGCAAAAGGC | 0.801 |
| GAGACCGCAACTGAAAAGTTGTTATCACTTGTCATAAGACACTTTGGATGGGTTGAAGTTCTGCACGTAGAAGCAAAAGGC | 0.848 |
| GAGACCGCAACTGAAAAGTTGTTATCACTTGTCATCAGACACTTTGGATGGGTTGAAGTTCTGCACGTAGAAGCAAAAGGC | 0.83 |
| GAGACCGCAACTGAAAAGTTGTTATCACTTGTCATGAGACACTTTGGATGGGTTGAAGTTCTGCACGTAGAAGCAAAAGGC | 0.846 |
| GAGACCGCAACTGAAAAGTTGTTATCACTTGTCATTAGACACTTTGGATGGGTTGAAGTTCTGCACGTAGAAGCAAAAGGC | 0.843 |
| GAGACCGCAACTGAAAAGTTGTTATCACTTGTCATACGACACTTTGGATGGGTTGAAGTTCTGCACGTAGAAGCAAAAGGC | 0.835 |
| GAGACCGCAACTGAAAAGTTGTTATCACTTGTCATAGGACACTTTGGATGGGTTGAAGTTCTGCACGTAGAAGCAAAAGGC | 0.859 |
| GAGACCGCAACTGAAAAGTTGTTATCACTTGTCATATGACACTTTGGATGGGTTGAAGTTCTGCACGTAGAAGCAAAAGGC | 0.84 |
| GAGACCGCAACTGAAAAGTTGTTATCACTTGTCATAAGCCACTTTGGATGGGTTGAAGTTCTGCACGTAGAAGCAAAAGGC | 0.8 |
| GAGACCGCAACTGAAAAGTTGTTATCACTTGTCATAAGGCACTTTGGATGGGTTGAAGTTCTGCACGTAGAAGCAAAAGGC | 0.835 |
| GAGACCGCAACTGAAAAGTTGTTATCACTTGTCATAAGTCACTTTGGATGGGTTGAAGTTCTGCACGTAGAAGCAAAAGGC | 0.818 |
| GAGACCGCAACTGAAAAGTTGTTATCACTTGTCATAAGACCCTTTGGATGGGTTGAAGTTCTGCACGTAGAAGCAAAAGGC | 0.76 |
| GAGACCGCAACTGAAAAGTTGTTATCACTTGTCATAAGACGCTTTGGATGGGTTGAAGTTCTGCACGTAGAAGCAAAAGGC | 0.81 |
| GAGACCGCAACTGAAAAGTTGTTATCACTTGTCATAAGACTCTTTGGATGGGTTGAAGTTCTGCACGTAGAAGCAAAAGGC | 0.811 |
| GAGACCGCAACTGAAAAGTTGTTATCACTTGTCATAAGACACTTTGGCTGGGTTGAAGTTCTGCACGTAGAAGCAAAAGGC | 0.772 |
| GAGACCGCAACTGAAAAGTTGTTATCACTTGTCATAAGACACTTTGGGTGGGTTGAAGTTCTGCACGTAGAAGCAAAAGGC | 0.795 |
| GAGACCGCAACTGAAAAGTTGTTATCACTTGTCATAAGACACTTTGGTTGGGTTGAAGTTCTGCACGTAGAAGCAAAAGGC | 0.798 |
| GAGACCGCAACTGAAAAGTTGTTATCACTTGTCATAAGACACTTTGGATGGGTTGCAGTTCTGCACGTAGAAGCAAAAGGC | 0.804 |
| GAGACCGCAACTGAAAAGTTGTTATCACTTGTCATAAGACACTTTGGATGGGTTGGAGTTCTGCACGTAGAAGCAAAAGGC | 0.775 |
| GAGACCGCAACTGAAAAGTTGTTATCACTTGTCATAAGACACTTTGGATGGGTTGTAGTTCTGCACGTAGAAGCAAAAGGC | 0.819 |
| GAGACCGCAACTGAAAAGTTGTTATCACTTGTCATAAGACACTTTGGATGGGTTGACGTTCTGCACGTAGAAGCAAAAGGC | 0.791 |
| GAGACCGCAACTGAAAAGTTGTTATCACTTGTCATAAGACACTTTGGATGGGTTGAGGTTCTGCACGTAGAAGCAAAAGGC | 0.835 |
